{"source": "patent US10781452B2", "about": "“FLT3 receptor antagonists for the treatment or the prevention of pain disorders” (INSTITUT NATIONAL DE LA SANTE ET DE LA RECHERCHE MEDICALE …, priority 2010, dated 2020)", "molecules": {"B1": {"name": "A3 antibody: human monoclonal antibody against FLT3; VH SEQ ID NO:1, VL SEQ ID NO:2 (antibody, V domains shown)", "VH": "EVQLVESGGSLVKPGGSLRLSCAASGFTFSNSYMNWVRQAPGKGLEWISDISGSSRDIDYADFVKGRFTISRDNATNSLYLQMNSLRAEDTAVYYCVRSGNSGMDVWGRGTLVTVSS", "VL": "QSVLTQPASVSGSPGQSITISCAGTSSDVGGGYYVSWYQQHPGKAPKLMIYYDSYRPSGVSNRFSGSKSGNTASLTISGLQAEDEADYYCSSYTNNSTRVFGGGTKLEIK", "modifications": "Synthetic VH domain of A3; Synthetic VL region of A3"}}, "key": {"[1]": {"biological_target": "T1, ECD of human recombinant FLT3 (Fc-ECDhFLT3) (Homo sapiens, UniProt P36888)", "T1 construct": "ECD of human or mouse recombinant FLT3 produced in NSO cell line; host or cells: NSO cell line", "T1 sequence (P36888 27-543 limits assumed)": "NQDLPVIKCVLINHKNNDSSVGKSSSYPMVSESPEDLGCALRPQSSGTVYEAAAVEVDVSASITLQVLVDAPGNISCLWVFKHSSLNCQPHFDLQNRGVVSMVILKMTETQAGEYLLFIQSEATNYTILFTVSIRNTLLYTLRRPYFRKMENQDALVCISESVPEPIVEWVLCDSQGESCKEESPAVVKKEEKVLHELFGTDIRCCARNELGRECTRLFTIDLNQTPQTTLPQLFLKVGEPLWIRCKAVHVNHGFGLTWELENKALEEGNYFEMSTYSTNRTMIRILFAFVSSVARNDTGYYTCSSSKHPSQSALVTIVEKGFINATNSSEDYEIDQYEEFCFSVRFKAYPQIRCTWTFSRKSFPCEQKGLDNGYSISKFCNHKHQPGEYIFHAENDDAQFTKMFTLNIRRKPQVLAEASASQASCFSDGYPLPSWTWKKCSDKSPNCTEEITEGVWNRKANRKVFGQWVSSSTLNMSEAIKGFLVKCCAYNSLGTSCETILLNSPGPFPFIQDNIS", "test": "ELISA binding to ECD of human recombinant FLT3", "settings": "antibody at 10 μg/mL", "description": "The A3 antibody directed against FLT3 was produced by a phage display strategy and the antibody selection was performed by using ECD of human or mouse recombinant FLT3 produced in NSO cell line. To identify antibodies cross-reacting with both human and mouse FLT3, phages were selected by three rounds of panning, according to methods well known in the art (Philibert, P. et al. A focused antibody library for selecting scFvs expressed at high levels in the cytoplasm. BMC Biotechnol. 7, 81; 2007), first against the ECD of human FLT3, then against the ECD of mouse FLT3 and then against the ECD of human FLT3. A batch of one selected antibody named A3 was tested for its ability to bind to the ECD of human or mouse recombinant FLT3 using an ELISA technique."}, "[2]": {"biological_target": "T2, FLT3 (Mus musculus, UniProt Q00342)", "T2 construct": "from tissue; host or cells: living mice (sensory neurons / DRG)", "T2 sequence (Q00342 28-1000)": "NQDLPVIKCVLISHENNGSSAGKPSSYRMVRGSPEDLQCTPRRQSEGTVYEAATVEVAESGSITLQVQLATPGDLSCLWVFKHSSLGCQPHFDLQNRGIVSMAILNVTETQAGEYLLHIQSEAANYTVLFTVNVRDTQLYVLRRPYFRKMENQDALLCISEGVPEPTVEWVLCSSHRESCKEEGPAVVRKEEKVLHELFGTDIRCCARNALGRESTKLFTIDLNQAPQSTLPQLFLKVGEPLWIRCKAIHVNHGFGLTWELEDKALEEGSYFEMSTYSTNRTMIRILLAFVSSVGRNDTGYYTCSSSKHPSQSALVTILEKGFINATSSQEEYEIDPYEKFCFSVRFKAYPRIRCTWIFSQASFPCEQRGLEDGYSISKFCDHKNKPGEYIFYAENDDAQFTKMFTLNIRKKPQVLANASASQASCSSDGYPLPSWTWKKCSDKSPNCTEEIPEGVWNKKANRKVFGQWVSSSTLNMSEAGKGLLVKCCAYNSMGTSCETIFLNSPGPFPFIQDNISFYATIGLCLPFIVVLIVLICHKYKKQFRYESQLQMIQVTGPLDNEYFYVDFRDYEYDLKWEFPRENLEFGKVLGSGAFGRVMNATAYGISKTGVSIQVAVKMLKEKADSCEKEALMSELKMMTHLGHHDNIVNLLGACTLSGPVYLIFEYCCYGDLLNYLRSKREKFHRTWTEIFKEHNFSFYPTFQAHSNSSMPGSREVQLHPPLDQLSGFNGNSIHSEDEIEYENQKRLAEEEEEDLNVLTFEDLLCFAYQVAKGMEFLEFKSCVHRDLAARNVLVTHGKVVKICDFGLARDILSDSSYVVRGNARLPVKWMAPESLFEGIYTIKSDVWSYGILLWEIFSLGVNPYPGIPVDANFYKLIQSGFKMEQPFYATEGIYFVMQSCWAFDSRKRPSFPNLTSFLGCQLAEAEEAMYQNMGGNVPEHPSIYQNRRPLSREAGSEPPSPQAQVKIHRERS", "test": "Chronic Constriction Injury (CCI) mouse model, mechanical hypersensitivity (0.6 g von Frey filament)", "format": "in vivo", "description": "The efficacy of the antibody A3 to reverse neuropathic pain was assessed in the Chronic Constriction Injury (CCI) mouse model of persistent peripheral neuropathic pain, consisting in three chronic ligatures tied loosely around the sciatic nerve (Bennett, G. J. & Xie, Y. K. A peripheral mononeuropathy in rat that produces disorders of pain sensation like those seen in man. Pain, 1988, 33:87-107). Neuropathic pain symptoms, such as mechanical hypersensitivity, develop within 10 days post-injury.\nCCI model. The Chronic Constriction Injury (CCI) model was adapted for mice (Costa, B., Comelli, F., Bettoni, I., Colleoni, M. & Giagnoni, G. The endogenous fatty acid amide, palmitoylethanolamide, has anti-allodynic and anti-hyperalgesic effects in a murine model of neuropathic pain: involvement of CB(1), TRPV1 and PPARgamma receptors and neurotrophic factors. Pain, 2008, 139:541-550). Briefly, skin was incised and the sciatic nerve was exposed unilaterally at the […] by dissecting through the biceps femoris. […]\nMechanical nociception assay. […] The procedure was applied 10 times and the percentage of positive responses was calculated.\nData and statistical analyses. Data are expressed as the mean ±S.E.M. Statistical significance was determined by two-way analysis of variance (ANOVA) for repeated measures, over time. […]"}}}
{"molecule": "B1", "values": [{"measurement": "ELISA immunoreactivity against Fc-ECDhFLT3", "setting": "[1]", "value": "generates immunoreactivity"}, {"measurement": "mechanical sensitivity (percentage of withdrawal) after CCI injury", "setting": "[2]; 100 μg/animal intraperitoneal, 9 days after CCI, vs control irrelevant antibody", "value": "completely reduce mechanical sensitivity to the scores obtained before CCI injury"}, {"measurement": "duration of inhibition of CCI-induced pain hypersensitivity", "setting": "[2]; single injection, 100 μg/animal", "value": 48, "unit": "h"}]}
